{
  "source": "paper PMC11121168",
  "tested_on": "CC[C@H](NC(=O)OC(C)(C)C)C(=O)N[C@H](C(=O)N[C@@H](CC(C)C)C(=O)N[C@@H](CCC(N)=O)C(=O)Nc1ccc2c(C)cc(=O)oc2c1)C(C)(C)C",
  "experiment": "purified protein, by the assay type",
  "conditions": "pH 7.2; 37.0 °C",
  "data": [
    {"substance": "C-terminally His-tagged SARS-CoV-2 Mpro (Severe acute respiratory syndrome coronavirus 2)", "values": [
      {"measurement": "Km", "result": "85.2 ± 5.6", "unit": "µmol/L"}
    ]}
  ]
}
